According to PMC2529288:

Target: Secretory leukoproteinase inhibitor (human (endogenous in A549)) (UniProt P03973)
UniProt P03973, sequence (P03973 26-132): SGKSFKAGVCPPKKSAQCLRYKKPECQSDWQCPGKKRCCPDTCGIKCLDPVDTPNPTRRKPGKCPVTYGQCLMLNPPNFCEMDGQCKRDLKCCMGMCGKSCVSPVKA

neutrophil elastase (from UniProt P08246 30-267) (enzyme)
SLPI concentration (ELISA) in the lower Transwell compartment of A549 cells, 10 min after 10 nM NE was added to the lower compartment only, as % of control wells: 8.6 % of control | SLPI concentration (ELISA) in the upper Transwell compartment of A549 cells, 10 min after 10 nM NE was added to the upper compartment only, as % of control wells: 10.6 % of control
